Measurements reported in patent US8680233B2, “Heteropeptides useful for reducing nonspecific adsorption” (Valorisation-Recherche, Limited Partnership, priority 2009, dated 2014).
Numbered stars: 1 amine (or outer) side, 2 acyl side, 3 side chain; on linkers, the order of the positions; unused ones are H or OH. Square brackets hold non-standard residues; d marks the D form. Peptide text beside a SMILES is read from it. Haic = O=C1[C@@H](N[*:1])CCc2cccc3c2N1[C@H](C(=O)[*:2])C3; dTrp(2-Me) = Cc1[nH]c2ccccc2c1C[C@@H](N)C(=O)O

B1: His-tagged hDHFR: His-tagged human dihydrofolate reductase immobilized on the SPR sensor (protein)
chain: MVGSLNCIVAVSQNMGIGKNGDLPWPPLRNEFRYFQRMTTTSSVEGKQNLVIMGKKTWFSIPEKNRPLKGRINLVLSRELKEPPQGAHFLSRSLDDALKLTEQPELANKVDMVWIVGGSSVYKEAMNHPGHLKLFVTRIMQDFESDTFFPEIDLEKYKLLPEYPGVLSDVQEEKGIKYKFEVYEKND
modifications: left off: small tags and cut ends
notes: His-tagged human dihydrofolate reductase immobilized on the SPR sensor

Key:
[1] = molecular target: recombinant soluble His-tagged CD36 (Homo sapiens, UniProt P16671); assay: SPR screening of peptide ligands on a CD36 functionalized sensor; format: binding; settings: increasing ligand concentrations
Sequence of recombinant soluble His-tagged CD36 (P16671 30-439 limits assumed): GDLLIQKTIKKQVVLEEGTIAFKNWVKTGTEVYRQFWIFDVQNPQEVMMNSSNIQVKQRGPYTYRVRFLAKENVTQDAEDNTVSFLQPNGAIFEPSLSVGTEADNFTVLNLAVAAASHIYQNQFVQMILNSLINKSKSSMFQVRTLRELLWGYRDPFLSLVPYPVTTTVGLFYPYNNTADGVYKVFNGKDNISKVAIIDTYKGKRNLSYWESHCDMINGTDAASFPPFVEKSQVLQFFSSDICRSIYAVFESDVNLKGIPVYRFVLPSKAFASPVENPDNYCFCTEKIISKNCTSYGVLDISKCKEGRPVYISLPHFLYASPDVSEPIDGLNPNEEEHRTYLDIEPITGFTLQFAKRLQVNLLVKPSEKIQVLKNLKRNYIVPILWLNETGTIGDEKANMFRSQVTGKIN
Protocol: (§1) The SPR sensors for screening small peptidic ligand binding to a recombinant soluble His-tagged CD36 functionalized surfaces were prepared as described above. Five ligands were investigated: EP80317, CP-2B(i), CP-3(iv), CP-2A(v) and DBG-178(27) with concentrations ranging from 30 μM to 100 nM except for EP80317. The latter was used for optimizing the system with solutions ranging from 1 mM to 100 nM. EP80317 (HAIC-2MeDTrp-DLys-Trp-D-Phe-Lys-NH2) is a positive control of known activity, CP-2B(i) (His-DTrp-AzaLeu-Trp-DPhe-Ala-NH2) is a negative control, and CP-3(iv) (Ala-DTrp-Ala-AzaPhe-DPhe-Lys-NH2), CP-2A(v) (His-DTrp-AzaGly-Trp-DPhe-Lys-NH2) and DBG-178(27) (His-DTrp-Ala-azaTyr-DPhe-Lys-NH2) are novel CD36 ligands (see PCT publication No. WO 08/154,738). Another negative control was accomplished by exposing the His-tagged hDHFR functionalized surface to the same concentration of CD36 peptidic ligand. Two different approaches were used to remove the His-tagged CD36-Cu complex from the SPR sensors: concentrated histidine solution or saturated EDTA solution.
This is the case of the CD36-ligand system investigated herein, where the ligands are small peptides of about 800 to 1000 g/mol. Indeed, according to the aforementioned principle, the binding of the small peptides to the CD36 receptor should be close to the limit of detection, thus providing unreliable affinity measurements. […] This could be a consequence of a large conformational change of the CD36 receptor upon binding of specific ligands, thus providing the amplification sufficient for SPR signal detection.
The SPR setup was used for investigating the structure-activity relationships of various CD36 peptidic ligands. […] The measured KD's were compared to the EC50 values obtained in the activated src-kinase assay following CD36 receptor activation by the tested peptides. […] For the src-kinase cellular assay, the response sensitivity (EC50) for the tested peptides (in decreasing order) was as follows: EP80317>CP-2A(v)>CP-3(iv)>DBG-178(27)>CP-2B(i). With SPR, the binding affinity to CD36, in decreasing order, was: DBG-178(27)>CP-2A(v)>EP80317>CP-3(iv)>CP-2B(i). […] For CD36-peptidic ligands, a correlation appears between the affinity binding of the small peptides for CD36 as determined by SPR and their efficiency to produce a cellular response in the src kinase assay. Thus, SPR appears as a selective and sensitive method to screen for CD36 ligands.

His-tagged hDHFR = molecular target: T1, His-tagged hDHFR (Homo sapiens, UniProt P00374); assay: SPR blank assay on a hDHFR-His-Tag functionalized sensor; format: binding; settings: same peptide concentrations
T1 construct: made in house
T1 sequence (P00374 1-187): B1 chain
Protocol: as §1
This is the case of the CD36-ligand system investigated herein, where the ligands are small peptides of about 800 to 1000 g/mol. Indeed, according to the aforementioned principle, the binding of the small peptides to the CD36 receptor should be close to the limit of detection, thus providing unreliable affinity measurements. […]

[2] = molecular target: T2, human dihydrofolate reductase (hDHFR) (Homo sapiens, UniProt P00374); assay: Real-time UV/Vis monitoring of the enzymatic reaction of immobilized hDHFR; format: biochemical
T2 construct: made in house
T2 sequence (P00374 1-187): B1 chain
Protocol: The peptidomimetic monolayer binding His-tagged biomolecules was exposed for a period of 15 min to a 50 μg/mL PBS solution of His-tagged hDHFR, then rinsed with PBS. The SPR sensor with His-tagged hDHFR was placed in a UV/Vis cuvette, similar to a method developed by Knoll et al. (Xu et al., 2005. Journal of the American Chemical Society 127(38), 13084-13085). His-tagged hDHFR was obtained as previously reported (Volpato et al., 2007 Journal of Molecular Biology 373, 599-611). A negative control, consisting of the peptidomimetic-modified SPR sensor without hDHFR was exposed to buffer and rinsed to verify that the observed change in absorbance was due to immobilized His-tagged hDHFR and not to the surface itself. The enzymatic reaction catalyzed by hDHFR was monitored by UV/Vis spectrometry. The SPR sensors were immersed in a solution of 100 μM NADPH (cofactor) and 100 μM dihydrofolate (DHF, substrate) in 10 mM Tris buffer, pH=8.0, for 1 hour. The activity of the enzyme was measured by following the time course of the absorption (ΔA(t)) at λ=340 nm due to consumption of NADPH and DHF, by subtracting the blank signal (Ablank(t)) and the initial absorbance of the solution (A(O)). The activity was confirmed for each sample of His-tagged hDHFR on the SPR sensor. 1 U of enzyme activity corresponds to conversion of 1 μmol substrate to product per min. Absorption spectra were recorded with a Cary 100 Bio UV/Vis spectrometer equipped with a liquid temperature control system running at 35° C. to be in the optimal condition for the enzymatic reaction to take place. After monitoring the activity, the SPR sensors were rinsed with buffer, 18.2 MΩ water and the His-tagged hDHFR was removed from the surface with a 0.5 M imidazole solution for 10 minutes. […]
In contrast with those results, immobilizing His-tagged hDHFR on the peptidomimetic monolayer allowed to retain the activity of the enzyme. This is observed by a consumption of the reactants (NADPH and DHF), decreasing the absorbance measured at λ=340 nm (FIG. 3). According to the absorption coefficient (Δ∈=12.8 mM^−1 cm^−1), the measured slope (5.7*10 Abs/min) corresponded to an activity of 4.4±0.8*10^−5 U. The specific activity of His-tagged hDHFR previously determined in presence of saturating reactants was 8.5 U/mg. Thus, the activity measured on the surface corresponded to 5±0.9 ng (n=4) of fully active hDHFR. […] The fraction of active enzyme on the surface cannot be determined, because the activity measured for the enzyme immobilized on the surface of the SPR is a factor of the activity of the enzyme (as for the enzyme in solution) and the time required for the products to diffuse in the light beam of the UV-Vis (not a factor for the enzyme in solution). […]

[3] = molecular target: T2, human dihydrofolate reductase (hDHFR); settings: previously determined in presence of saturating reactants; cited from earlier work

Row | Molecule | Change of SPR signal on CD36-His-tag-functionalized surface [1] | Change of SPR signal on hDHFR-His-Tag functionalized sensor (His-tagged hDHFR) | Enzyme activity after covalent immobilization ([2]; covalently immobilized to 16-MHA using EDC/NHS chemistry) | Average variation of the absorbance value over 60 minutes ([2]; four sensors regenerated with imidazole, n=8) | Enzyme activity of immobilized enzyme ([2]; immobilized on peptidomimetic monolayer, absorbance at 340 nm) | Amount of fully active enzyme corresponding to the measured surface activity ([2]; n=4) [ng] | Specific activity [3] [U/mg]
1 | Cc1[nH]c2ccccc2c1C[C@@H](NC(=O)[C@@H]1Cc2cccc3c2N1C(=O)[C@@H](N)CC3)C(=O)N[C@H](CCCCN)C(=O)N[C@@H](Cc1c[nH]c2ccccc12)C(=O)N[C@H](Cc1ccccc1)C(=O)N[C@@H](CCCCN)C(N)=O [EP80317, HAIC-2MeDTrp-DLys-Trp-D-Phe-Lys-NH2, reference compound] (Haic-[dTrp(2-Me)][dK]W[dF]K-NH2; N-terminus assumed) | large shift in the signal | no significant change of signal | – | – | – | – | –
2 | B1 | – | – | inactive | −0.034±0.006 | 4.4±0.8*10^−5 U | 5 ± 0.9 | 8.5
